Measured values taken from article PMC11656743.
Values joined by “and” are separate entries in the source; they are usually repeats but may differ in a detail not shown here. Identical values can stand only once.

Tests used:
[1] = target: MoaB2 with C-terminal His-tag, for crystallography (strain LK2615) (M. smegmatis); test: dynamic light scattering; 5 mg/mL MoaB2 in 20 mM Tris-HCl pH 8.0, 50 mM NaCl, 3 mM NaN3, 25°C
[2] = target: MoaB2 with C-terminal His-tag, for crystallography (strain LK2615) (M. smegmatis); test: crystal structure; X-ray, 2.53 Å; crystals from 0.2 M calcium chloride, 14% PEG 400, 0.1 M sodium-HEPES pH 7.5
[3] = target: MoaB2, recombinant, tag cleaved (strain LK2936) (M. smegmatis) (UniProt A0R3I5); test: SEC; Superdex 200 Increase 10/300, 25 mM Tris-HCl pH 7.5, 50 mM NaCl, 1 mM DTT, 15°C; fractions on SDS-PAGE
[4] = target: σ^A, recombinant, tag cleaved (strain LK2832) (M. smegmatis) (UniProt A0QW02); test: AUC; multi-signal sedimentation velocity (absorbance 280 nm and interference) at σ^A:MoaB2 molar ratio 1:0.3
[5] = target: MoaB2, recombinant, tag cleaved (strain LK2936) (M. smegmatis) (UniProt A0R3I5); test: AUC; sedimentation velocity, 20°C, 50 mM HEPES pH 7.5, 100 mM NaCl, 0.5 mM TCEP, 3 mM NaN3; σ^A 19.4 µM, MoaB2 77.6 µM, σ^A:MoaB2 mixtures 1:0.1 to 1:4
[6] = target: σ^A, recombinant, tag cleaved (strain LK2832) (M. smegmatis) (UniProt A0QW02); test: as above

stoichiometry N [1]	stoichiometry N [2]	stoichiometry N [3]	stoichiometry N [4]	stoichiometry N [5]	Kd [6]	stoichiometry N [6]	Substance
6	6	–	–	–	–	–	MoaB2 with C-terminal His-tag, for crystallography (strain LK2615) (natural protein)
–	–	6	1 σ^A:MoaB2	6 and 3	< 1 µM	1 σ^A:MoaB2	MoaB2, recombinant, tag cleaved (strain LK2936) (from UniProt A0R3I5 1-178) (natural protein)
